According to the DeepSol protein solubility set:

Assay: soluble on expression in E. coli; label from the status in PepcDB or PDB records

Sequence | soluble on expression in E. coli
MGSDKIHHHHHHMSTFIFPGDSFPVDPTTPVKLGPGIYCDPNTQEIRPVNTGVLHVSAKGKSGVQTAYIDYSSKRYIPSVNDFVIGVIIGTFSDSYKVSLQNFSSSVSLSYMAFPNASKKNRPTLQVGDLVYARVCTAEKELEAEIECFDSTTGRDAGFGILEDGMIIDVNFNFARQLLFNNDFPLLKVLAAHTKFEVAIGLNGKIWVKCEELSNTLACYRTIMECCQKNDTAAFKDIAKRQFKEILTVKEE | not soluble
MIKRNLLVMGLAVLLSACGFQLRGTGTTELAIKELDVSARNAYGETVTQLTRLLTSSGVKVYTGAPYKLILTSENETQRTISFSGSGRSAEYQLTNTLTYEIHGDRDRLLLDNKVSADRSYVHDGNNLTGSDQEASQVRQEMRNDLIQKLMARLQQLTPSRLDELQAKADAVAKAEADALEAAQRIRDETPQQSPVEVPARLEHHHHHH | not soluble
GSRTVDLELELQIELLRETKRKYESVLQLGRALTAHLYSLLQTQHALGDAFADLSQKSPELQEEFGYNAETQKLLCKNGETLLGAVNFFVSSINTLVTKTMEDTLMTVKQYEAARLEYDAYRTDLEELSLGPRDAGTRGRLESAQATFQAHRDKYEKLRGDVAIKLKFLEENKIKVMHKQLLLFHNAVSAYFAGNQKQLEQTLQQFNIKLRPPGAEKPSWLEEQ | soluble
MSAPTMRSTSILTEHLGYPPISLVDDIINAVNEIMYKCTAAMEKYLLSKSKIGEEDYGEEIKSGVAKLESLLENSVDKNFDKLELYVLRNVLRIPEEYLDANVFRLENQKDLVIVDENELKKSEEKLREKVNDVELAFKKNEMLLKRVTKVKRLLFTIRGFKQKLNELLKCKDDVQLQKILESLKPIDDTMTLLTDSLRKLYVDSESTSSTEEVEALLQRLKTNGKQNNKDFRTRYIDIRTNNVLRKLGLLGDKEDEKQSAKPDARTQAGDIVSIDIEEPQLDLLDDVL | soluble
MLFTEMEIEIPKAVFEELQLYIEYLQEKTGKTIDPMAAIGNILQTYFENNGLWGVSEEDFKEKAKIAVKKLLTKKAKKDKPLLTKKVEKLLTQAVEIEQVPAKTAGQIAYQAKALVQVTFPHRDPKTPYYRCDSGKYSLIITADPDHGIPYGTYPRLITCWLVTEIVRTNSRRIVLGKCFSDFLRSIGVGLDSRTRKQVEQQIKRLFSADIKLKYNSKESWQFQRCNVATKAAMWWDTKNPDQFTLDESFVVVGEDFYAMALNAPFPIDLRALAALKQSPMALDIYMWLTLRMCHLAAPYPLSWPQLKSQFGPETSDLDNFRTKFKDALKKVRVVYPHAKLSVNAKELTLFPSPTHVQKAVKRVAALEHHHHHH | soluble
MSLDASQGGEQQSFSWDNATVYFAITDRFHDGNPSNNQSYGRPQEDAWGQNIGTFHGGDLQGLTDKLNEGYFTELGINAIWITAPYEQVHGWVGGGSDGDFAHYAYHGYYALDYTMIDQNMGTVEDMREFVHTAHEQGIRVVLDVVMNHPGYNTIKDMHEYGFGNPGVSEHWTPGQGQNWHDVHQQINYEDAGAWRHWWGPWIRAGIAGYESCGNSEITMCLAGLPDFRTELTHSVGLPPLLETKWNQERQGGYEDWIVPAANDLRRDLGVAPADYIVKWLSAWVEEFGIDGFRVDTAKHVELSRWQQLKDAANEALWKWREENPEAPGANWTDDFWMVGEVWGHGVGRSEYFDHGFDSVINFTFQGEHGNGPAYRLDTMESTFSRYANAINTDSTFNVLSYLSQHDTQLYPRERLIDGGTYLMLLPGGVQVFYGDETARPFGPTGSDPHQGTRSSMNWDSVNEEVLHHWQKMGQFRSNHLAVGAGEHRQIAASPYTFSRTYVEGDVDDRVVVVVGASGETTIDVSSVFSDGQQVRDFYTGNVTVVENGHVTFPAHRNGVILIERAGDEGHHHHHH | soluble
MVQREKARDNFEGGCLAELIGSPRDWKCFLAVPDPLLGVQHWLHLWRPQTKDGNSLHRHGDQAWGKHRRQNSLKSPALSGHSIDYHFYPRLRCGMLIGPDKQAVASGLEVLVTSSTKILGQLFPDAAHFLEEASEFKAE | soluble
SNAMTMKVGFIGLGIMGKPMSKNLLKAGYSLVVSDRNPEAIADVIAAGAETASTAKAIAEQCDVIITMLPNSPHVKEVALGENGIIEGAKPGTVLIDMSSIAPLASREISDALKAKGVEMLDAPVSGGEPKAIDGTLSVMVGGDKAIFDKYYDLMKAMAGSVVHTGDIGAGNVTKLANQVIVALNIAAMSEALTLATKAGVNPDLVYQAIRGGLAGSTVLDAKAPMVMDRNFKPGFRIDLHIKDLANALDTSHGVGAQLPLTAAVMEMMQALRADGHGNDDHSALACYYEKLAKVEVTR | soluble
